Columns and labels:
[1] = target: T1, MglB (MglB-2 construct, 6xHis tag cleaved by TEV protease) (M. xanthus), Q1DB03; assay: crystal structure; MglA-GTPγS/MglB complex; equimolar MglA and MglB with 20x GTPγS, purified by SEC; crystals in 0.2 M HEPES pH 7, 16% PEG 4000; 2.8 Å; conditions: remark: other sources report otherwise
T1 chain: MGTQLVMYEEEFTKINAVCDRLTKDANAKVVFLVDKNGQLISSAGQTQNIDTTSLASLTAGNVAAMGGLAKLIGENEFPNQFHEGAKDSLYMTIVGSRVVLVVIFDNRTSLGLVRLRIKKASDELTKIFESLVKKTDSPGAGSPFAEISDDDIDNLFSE

[2] = target: T1, MglB (MglB-2 construct, 6xHis tag …); assay: SEC-MALS; MglB at 3 mg/mL in 20 mM Tris pH 7.5, 50 mM NaCl, 10 mM MgCl2; Superdex 75 10/300 GL; conditions: remark: other sources report otherwise
[3] = target: the molecule itself; assay: crystal structure; unbound MglB (MglB-1), form 2 crystals in 0.1 M MES pH 6, 0.15 M ammonium sulfate, 15% PEG 4000; 20 molecules in the asymmetric unit; 2.39 Å

B1: MglB (MglB-2 construct, 6xHis tag cleaved by TEV protease), Q1DB03 1-159 (natural protein)
chain: T1 chain
With B1 the stoichiometry N [1] was 2 and the stoichiometry N [2] was 2.

B2: MglB (MglB-1 construct, 34-residue N-terminal tag) (natural protein, M. xanthus)
chain: GTQLVMYEEEFTKINAVCDRLTKDANAKVVFLVDKNGQLISSAGQTQNIDTTSLASLTAGNVAAMGGLAKLIGENEFPNQFHEGAKDSLYMTIVGSRVVLVVIFDNRTSLGLVRLRIKKASDELTKIFESLVKKTDSPGAGSPFAEISDDDIDNLFSE
notes: MglB, GAP of MglA, Myxococcus xanthus; residues 133-165 not visible in the crystal; No cleavage of the tag is described
B2 was tested, and the “stoichiometry N” value [3] was 4.
